T1: MLL3_(ePHD6)_(1055–1144) (human, UniProt Q8NEZ4 1055-1144)
T1 construct: MLL3 (KMT2C), human, residues 1055–1144: the zinc finger before PHD6 and the sixth PHD domain; Monomer in solution by gel filtration; the dimer in the crystal is put down to crystal packing; also called extended PHD6 domain of MLL3; source: E. coli BL21 (DE3) Codon plus RIL, purified (Ni-NTA, thrombin, HiTrap Q, Superdex75); not shown: GST, N-terminal, cleaved; His tag, N-terminal, cleaved
T1 sequence (looked up): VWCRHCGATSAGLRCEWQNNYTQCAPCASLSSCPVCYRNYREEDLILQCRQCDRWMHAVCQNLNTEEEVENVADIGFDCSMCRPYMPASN

T2: MLL3_(ePHD6)_(1075–1144) (human, UniProt Q8NEZ4 1075-1144)
T2 construct: MLL3 (KMT2C), human, residues 1075–1144; also called MLL3_ePHD6, residues 1075–1144; source: E. coli BL21 (DE3) Codon plus RIL, purified (Ni-NTA, thrombin, HiTrap Q, Superdex75); not shown: GST, N-terminal, cleaved; His tag, N-terminal, cleaved
T2 sequence (looked up): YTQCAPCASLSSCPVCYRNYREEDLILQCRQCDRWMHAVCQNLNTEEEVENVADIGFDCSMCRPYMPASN

T3: MLL3_(PHD5-6)_(1008–1144) (human, UniProt Q8NEZ4 1008-1144)
T3 construct: MLL3 (KMT2C), human, residues 1008–1144; also called PHD5–6 of MLL3; source: E. coli BL21 (DE3) Codon plus RIL, purified (Ni-NTA, thrombin, HiTrap Q, Superdex75); not shown: GST, N-terminal, cleaved; His tag, N-terminal, cleaved
T3 sequence (looked up): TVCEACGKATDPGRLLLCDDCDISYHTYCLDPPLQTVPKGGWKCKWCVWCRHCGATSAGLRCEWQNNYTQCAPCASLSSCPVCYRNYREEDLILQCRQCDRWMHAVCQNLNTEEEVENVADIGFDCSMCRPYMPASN

B1: MLL4_(ePHD6)_(1475–1564) (domain or fragment, human, UniProt O14686 1475-1564, looked up)
chain: VSCMQCGAASPGFHCEWQNSYTHCGPCASLVTCPICHAPYVEEDLLIQCRHCERWMHAGCESLFTEDDVEQAADEGFDCVSCQPYVVKPV
notes: MLL4 (KMT2D, ALR), human, residues 1475–1564: the zinc finger before PHD6 and the sixth PHD domain; also called extended PHD6 domain of MLL4; source: E. coli BL21 (DE3) Codon plus RIL, purified (Ni-NTA, thrombin, HiTrap Q, Superdex75); not shown: GST, N-terminal, cleaved; His tag, N-terminal, cleaved

Experiments:
[1] = biological target: the molecule itself; assay: SEC; gel-filtration profiles of the purified domains (Supplementary Fig. 3)
MLL3_(ePHD6)_(1055–1144) = biological target: T1, MLL3_(ePHD6)_(1055–1144); assay: ITC; peptide (1–2 mM) in the syringe injected into protein (50–100 μM) in the cell; 25 °C; 20 mM Tris pH 7.5, 150 mM NaCl; single-site binding model; conditions: both partners purified
MLL4_(ePHD6)_(1475–1564) = biological target: B1; assay: as above; conditions: both partners purified
MLL4_(ePHD6)_(1495–1564) = biological target: T4, MLL4_(ePHD6)_(1495–1564) (human, UniProt O14686 1495-1564); assay: as above; conditions: both partners purified
T4 construct: MLL4 (KMT2D), human, residues 1495–1564; also called MLL4_ePHD6, residues 1495–1564; source: E. coli BL21 (DE3) Codon plus RIL, purified (Ni-NTA, thrombin, HiTrap Q, Superdex75); not shown: GST, N-terminal, cleaved; His tag, N-terminal, cleaved

MLL3_(ePHD6)_(1075–1144) = biological target: T2, MLL3_(ePHD6)_(1075–1144); assay: as above; conditions: both partners purified
[2] = biological target: T3, MLL3_(PHD5-6)_(1008–1144); assay: as above; conditions: both partners purified

Kd (MLL3_(ePHD6)_(1055–1144))	Kd (MLL4_(ePHD6)_(1475–1564))	Kd (MLL4_(ePHD6)_(1495–1564))	Kd (MLL3_(ePHD6)_(1075–1144))	Kd [2]	Binder	stoichiometry N [1]
					B1	2
					MLL4_(PHD6)_(1505–1564) (domain or fragment, human, UniProt O14686 1505-1564, looked up, MLL4 (KMT2D), human, residues 1505–1564 (sixth PHD domain alone); also called PHD6 domain of MLL4; source: E. coli BL21 (DE3) Codon plus RIL, purified (Ni-NTA, thrombin, HiTrap Q, Superdex75); not shown: GST, N-terminal, cleaved; His tag, N-terminal, cleaved) VTCPICHAPYVEEDLLIQCRHCERWMHAGCESLFTEDDVEQAADEGFDCVSCQPYVVKPV	2
35 µM	52 µM	48 µM	31 µM	83 µM	GKGGAKRHRKV (peptide, UniProt P62805 12-22, looked up, histone H4, residues 11–21; also called H4H18 peptide; source: synthetic peptide (Peptide 2.0 Inc.)) [histone H4 peptide H4_(11–21)]	
